Source: US20150246949A1, “Desmoglein 2 (DSG2) Binding Proteins and Uses Therefor” (UNIVERSITY OF WASHINGTON THROUGH ITS CENTER FOR …, priority 2012, published 2015)

T1: human DSG2 on cells (HeLa cells; polarized T84 cells) (human, UniProt Q14126 50-1118)
T1 sequence: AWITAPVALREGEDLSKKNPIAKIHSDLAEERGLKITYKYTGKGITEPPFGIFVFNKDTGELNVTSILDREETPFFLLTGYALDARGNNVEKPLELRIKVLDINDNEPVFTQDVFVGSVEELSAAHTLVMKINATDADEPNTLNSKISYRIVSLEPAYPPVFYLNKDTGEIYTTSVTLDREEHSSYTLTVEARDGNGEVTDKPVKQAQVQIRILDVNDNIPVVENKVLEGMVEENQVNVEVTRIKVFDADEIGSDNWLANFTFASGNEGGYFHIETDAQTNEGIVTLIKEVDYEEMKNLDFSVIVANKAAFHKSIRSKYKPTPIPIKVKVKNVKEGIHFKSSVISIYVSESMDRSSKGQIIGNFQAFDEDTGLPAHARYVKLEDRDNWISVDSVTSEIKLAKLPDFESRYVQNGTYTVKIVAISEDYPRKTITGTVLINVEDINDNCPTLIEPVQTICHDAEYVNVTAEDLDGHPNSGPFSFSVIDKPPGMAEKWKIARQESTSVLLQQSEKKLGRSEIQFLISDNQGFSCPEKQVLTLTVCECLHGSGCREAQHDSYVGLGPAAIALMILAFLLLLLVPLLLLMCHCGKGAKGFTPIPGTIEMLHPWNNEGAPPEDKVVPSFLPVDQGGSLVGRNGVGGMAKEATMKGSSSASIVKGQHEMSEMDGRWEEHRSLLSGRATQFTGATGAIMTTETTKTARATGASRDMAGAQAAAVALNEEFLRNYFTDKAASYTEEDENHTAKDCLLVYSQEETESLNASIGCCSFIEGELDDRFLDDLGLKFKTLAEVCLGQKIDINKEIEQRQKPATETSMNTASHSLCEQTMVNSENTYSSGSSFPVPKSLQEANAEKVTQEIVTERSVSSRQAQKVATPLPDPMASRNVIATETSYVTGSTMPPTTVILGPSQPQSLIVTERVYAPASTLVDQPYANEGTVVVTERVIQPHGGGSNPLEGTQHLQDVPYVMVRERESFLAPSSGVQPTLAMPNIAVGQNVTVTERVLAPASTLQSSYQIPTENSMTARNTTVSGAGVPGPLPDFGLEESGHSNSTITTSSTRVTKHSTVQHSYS

T2: Recombinant human DSG2 protein (Leinco Technologies) (human, UniProt Q14126 50-609)
T2 construct: also called soluble DSG2; soluble recombinant DSG2
T2 sequence: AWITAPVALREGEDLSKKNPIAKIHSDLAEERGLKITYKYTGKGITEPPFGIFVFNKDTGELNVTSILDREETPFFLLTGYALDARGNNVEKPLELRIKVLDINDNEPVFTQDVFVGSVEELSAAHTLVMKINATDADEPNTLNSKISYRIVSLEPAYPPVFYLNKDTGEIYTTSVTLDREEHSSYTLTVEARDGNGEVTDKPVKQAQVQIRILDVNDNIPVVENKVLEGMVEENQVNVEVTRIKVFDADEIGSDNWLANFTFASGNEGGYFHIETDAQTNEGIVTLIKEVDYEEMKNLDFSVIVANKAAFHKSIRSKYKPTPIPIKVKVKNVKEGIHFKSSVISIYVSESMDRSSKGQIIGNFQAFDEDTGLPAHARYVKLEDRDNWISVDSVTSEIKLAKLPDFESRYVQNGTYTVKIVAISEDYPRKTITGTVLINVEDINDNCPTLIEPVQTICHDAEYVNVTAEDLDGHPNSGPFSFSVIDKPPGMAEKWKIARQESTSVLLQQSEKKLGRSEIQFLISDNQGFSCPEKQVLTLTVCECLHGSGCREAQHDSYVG

T3: soluble recombinant DSG2 (Homo sapiens, UniProt Q14126)
T3 construct: purchased Leinco Technologies, Inc. (St. Louis, Mo.)
T3 sequence (Q14126 50-609 limits assumed): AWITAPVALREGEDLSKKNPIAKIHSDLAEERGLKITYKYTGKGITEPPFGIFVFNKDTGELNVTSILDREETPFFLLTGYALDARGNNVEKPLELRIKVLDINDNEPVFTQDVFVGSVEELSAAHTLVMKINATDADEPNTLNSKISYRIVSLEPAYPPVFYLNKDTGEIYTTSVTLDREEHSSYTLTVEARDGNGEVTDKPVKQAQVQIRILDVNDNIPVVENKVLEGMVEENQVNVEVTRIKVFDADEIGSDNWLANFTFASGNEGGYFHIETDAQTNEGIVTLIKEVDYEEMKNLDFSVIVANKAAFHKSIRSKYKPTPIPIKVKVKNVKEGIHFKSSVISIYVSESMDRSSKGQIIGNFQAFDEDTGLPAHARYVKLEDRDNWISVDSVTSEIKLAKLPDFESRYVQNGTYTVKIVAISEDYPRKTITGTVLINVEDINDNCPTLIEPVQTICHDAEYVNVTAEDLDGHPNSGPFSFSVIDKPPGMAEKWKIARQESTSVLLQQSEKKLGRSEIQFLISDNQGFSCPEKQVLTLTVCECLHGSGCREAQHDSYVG


Key:
[1] = biological target: T1, human DSG2 on cells (HeLa cells; …); assay: cell-based or functional assay
[2] = biological target: T1, human DSG2 on cells (HeLa cells; …); assay: attachment of 3H-labelled Ad3 virus (competitor) to HeLa cells pre-incubated with the dimeric knob
[3] = biological target: T2, Recombinant human DSG2 protein (Leinco …); assay: Western blot of dimeric knob (trimer band), soluble recombinant DSG2 as probe, anti-DSG2 mAb
[4] = biological target: T2, Recombinant human DSG2 protein (Leinco …); assay: Western blot of dimeric knob, soluble DSG2 as probe (Table 2: 0% residual binding)
[5] = biological target: T3, soluble recombinant DSG2; assay: Western blot of dimeric Ad3 fiber knob mutants probed with soluble DSG2; type: binding; settings: purified dimerized knob mutants
Excerpt: FIG. 1. Residues found to be critically involved in binding to DSG2. A) Shown are the amino acid sequences of the Ad3 and Ad14p1 fiber knob. Beta sheets present in the Ad3 knob (PDB accession number 1H7Z_A) and Ad14 knob (PDB: 3F0Y_A) are indicated by lines. Black arrows indicate residues within the Ad3 fiber knob which, when mutated individually, ablate or reduce binding to DSG2. […] B) Schematic structure of dimeric Ad3 fiber knob mutants. The fiber knob domain and one shaft motif was fused through a flexible linker to a homodimerizing K-coil domain (41). The proteins are self-dimerizing and can be purified by His-Ni-NTA affinity chromatography. C-F) Analysis of binding of dimeric Ad3 fiber knob mutants to soluble DSG2. C and D) Coomassie staining. 10 μg of purified Ad3 fiber knob (unboiled) were loaded per lane. Trimeric forms of the fiber knobs are indicated by an arrow. The gel contained SDS and the loading buffer containing DTT, which caused the disassembly of dimers of trimeric fiber knobs as previously reported (41). E and F): Western blot using soluble recombinant DSG2 as a probe, followed by anti-DSG2-mAb and anti-mouse IgG-HRP. For comparison, JO-1 (0.5 μg/lane) is shown. The Western blots were scanned and signals were quantified.
Mini-PROTEAN precast gels (BIO-RAD, Hercules, Calif.) with 4-15% gradient polyacrylamide were used. A total of […] protein mixed with 2× loading buffer (10 mM Tris-HCl, pH6.8, 200 mM DTT, 4% SDS, 20% glycerol, 0.2% bromophenol blue) was loaded per lane. Samples were either boiled (B) for 5 min or loaded unboiled (UB). The following running buffer was used: 25 mM Tris, pH8.3, 0.192 M glycine, 0.1% SDS. After electrophoresis, proteins were transferred to nitrocellulose and incubated with recombinant human DSG2 protein and anti-DSG2 antibodies as described previously (42). The Western blots were scanned and quantified using the ImageJ 1.32 software (National Institutes of Health, Bethesda, Md.). JO-1 band intensity was set as 100%. […]

[6] = test system: Ad3-GFP virus; assay: Competition of Ad3-GFP virus infection on HeLa cells; type: cell-based, adenovirus serotype 3 (Ad3); settings: HeLa cells pre-incubated with knob, 100 pfu/cell Ad3-GFP, GFP at 18 hours
Procedure: FIG. 3. Competition of Ad3 virus by dimerized Ad3 knob mutants. A) Relative attachment of ^3H-labeled Ad3 virus in the presence of dimeric fiber knob mutants. 1.8×10^5 HeLa cells were incubated with Ad3 knob mutants at a concentration of 2.5 and 100 μg/ml on ice for 1 hour. Then 400 pfu/cell of ^3H-Ad3 virus was added on ice for another hour. Unbound virus particles were washed away. Attachment of virus particles incubated with PBS was taken as 100%. N=3. B) Competition of Ad3-GFP virus infection on HeLa cells. 1.5×10^5 HeLa cells were seeded into 24 well plates. Cells were incubated with the Ad3 knob mutants at increasing concentrations for one hour at room temperature. 100 pfu/cell of Ad3-GFP virus were then added and GFP expression was analyzed 18 hours later by flow cytometry. Left panel: percentage of GFP positive cells. Right panel: mean fluorescence intensity. N=3. The standard deviation was less than 10%. C) Relative attachment of ^3H-labeled Ad3 virus in the presence of dimeric fiber knob mutants with multiple mutations. The study was performed as described in […]) The standard deviation was less than 10%. D) Competition of Ad3-GFP virus infection on HeLa cells. The study was performed as described in C) The standard deviation was less than 10%.
FIG. 9. Analysis of dimeric Ad3 fiber knob mutants with increased affinity to DSG2. A) Competition of Ad3-GFP virus infection on HeLa cells with dimeric affinity-enhanced mutant Y250F and JO-1 (dimeric wt Ad3 fiber knob). The experimental setting is as described for FIG. 3C. left panel: percentage of GFP positive cells. Right panel: mean fluorescence intensity. N=3. The standard deviation was less than 10%. […] 100 pfu/cell of Ad3GFP virus were then added and GFP expression was analyzed 18 hours later. […]
Competition studies were performed on HeLa cells, which express DSG2 (42). […] Transduction was measured based on GFP expression (FIG. 3B). […] Dimeric Ad3 knob mutants with combined mutations were also analyzed for their ability to compete with Ad3 virus for attachment (FIG. 3C) and infection (FIG. 3D).

Molecule	Inhibition of infection in the presence of dimeric knob (JO-1 = 100%) [1]	Inhibition of attachment in the presence of dimeric knob (JO-1 = 100%) [2]	Western blot residual DSG2 binding (wtAd3 knob = 100%) [3]	binding result [4]	DSG2 binding in Western blot compared to JO-1 [5]	Competition of Ad3-GFP infection based on GFP expression [6]
dimeric Ad3 fiber knob mutant D261N (designed binder) MKVSALKEKVSALKEKVSALKEKVSALKEKVSALKEGSGGGSGGGSGGGSNSIALKNNTLWTGPKPEANCIIEYGKQNPDSKLTLILVKNGGIVNGYVTLMGASDYVNTLFKNKNVSINVELYFDATGHILPDSSSLKTDLELKYKQTADFSARGFMPSTTAYPFVLPNAGTHNENYIFGQCYYKASNGALFPLEVTVMLNKRLPDSRTSYVMTFLWSLNAGLAPETTQATLITSPFTFSYIREDD	5.3%	45%	0%	no binding		
F265L (protein) MKVSALKEKVSALKEKVSALKEKVSALKEKVSALKEGSGGGSGGGSGGGSNSIALKNNTLWTGPKPEANCIIEYGKQNPDSKLTLILVKNGGIVNGYVTLMGASDYVNTLFKNKNVSINVELYFDATGHILPDSSSLKTDLELKYKQTADFSARGFMPSTTAYPFVLPNAGTHNENYIFGQCYYKASDGALLPLEVTVMLNKRLPDSRTSYVMTFLWSLNAGLAPETTQATLITSPFTFSYIREDD					almost completely ablated for DSG2 binding	least reduced
dimeric Ad3 fiber knob mutant F265L (designed binder) MKVSALKEKVSALKEKVSALKEKVSALKEKVSALKEGSGGGSGGGSGGGSNSIALKNNTLWTGPKPEANCIIEYGKQNPDSKLTLILVKNGGIVNGYVTLMGASDYVNTLFKNKNVSINVELYFDATGHILPDSSSLKTDLELKYKQTADFSARGFMPSTTAYPFVLPNAGTHNENYIFGQCYYKASDGALLPLEVTVMLNKRLPDSRTSYVMTFLWSLNAGLAPETTQATLITSPFTFSYIREDD	17.6%	55.6%	0%	no binding		
